# Laboratory results: doi:10.1101/2020.10.05.326918 (bioRxiv, 2020)
# B1: MED9 (natural protein, Mus musculus (endogenous in CH12 cells), UniProt Q8VCS6 1-142, looked up)
# chain: MASSGVAGGRQAEDTLQPPPELLPESKPPPPPQPLPVAALPPPAAPRPQSPAGAKEENYSFLPLVHNVIKCMDKDSPDLHQDLNALKTKFQELRKLIGTMPGIHVSPEQQQQQLHSLREQVRTKNELLQKYKSLCMFEIPKD
# B2: MED21 (natural protein, Mus musculus (endogenous in CH12 cells), UniProt Q9CQ39 1-144, looked up)
# chain: MADRLTQLQDAVNSLADQFCNAIGVLQQCGPPASFSNIQTAINKDQPANPTEEYAQLFAALIARTAKDIDVLIDSLPSEESTAALQAASLYKLEEENHEAATCLEDVVYRGDMLLEKIQSALADIAQSQLKTRSVTHSHSLPDS
# B3: MED11 (natural protein, Mus musculus (endogenous in CH12 cells), UniProt Q9D8C6 1-117, looked up)
# chain: MATYSLANERLRALEDIEREIGAILQNAGTAILELSKEKTNERLLDRQAAAFTTSVQHVEAELSAQIRYLTQVATGQPHEGSSYSSRKDCQMALKRVDYARLKISDVARTCEQMLEN
# B4: MED18 (natural protein, Mus musculus (endogenous in CH12 cells), UniProt Q9CZ82 1-208, looked up)
# chain: MEAPPVTMMPVTGGTINMMEYLLQGSVLDHSLESLIHRLRGLCDNMEPETFLDHEMVFLLKGQQASPFVLRARRSMDRAGAPWHLRYLGQPEMGDKNRHALVRNCVDIATSENLTDFLMEMGFRMDHEFVAKGHLFRKGIMKVVVYKIFRILVPGNTDSTEALSLSYLVELSVVAPAGQDMVSDDMRNFAEQLKPLVHLEKIDPKRLM
# Columns and labels:
# Test in all cases: cryo-EM structure
# MED4 = target: T1, MED4 (Mus musculus (endogenous in CH12 cells), UniProt Q9CQA5 1-270)
# T1 sequence (looked up): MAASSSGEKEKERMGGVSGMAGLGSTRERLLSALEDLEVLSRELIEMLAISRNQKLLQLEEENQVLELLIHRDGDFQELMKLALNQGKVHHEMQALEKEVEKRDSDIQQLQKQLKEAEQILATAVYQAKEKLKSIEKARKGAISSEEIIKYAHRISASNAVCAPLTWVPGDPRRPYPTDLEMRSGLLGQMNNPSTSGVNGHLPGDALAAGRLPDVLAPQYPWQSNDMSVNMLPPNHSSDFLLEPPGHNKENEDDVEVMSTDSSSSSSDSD
# MED1 = MED1 (Mus musculus (endogenous in CH12 cells), UniProt Q925J9 1-1575)
# Chain of MED1 (Q925J9 whole entry): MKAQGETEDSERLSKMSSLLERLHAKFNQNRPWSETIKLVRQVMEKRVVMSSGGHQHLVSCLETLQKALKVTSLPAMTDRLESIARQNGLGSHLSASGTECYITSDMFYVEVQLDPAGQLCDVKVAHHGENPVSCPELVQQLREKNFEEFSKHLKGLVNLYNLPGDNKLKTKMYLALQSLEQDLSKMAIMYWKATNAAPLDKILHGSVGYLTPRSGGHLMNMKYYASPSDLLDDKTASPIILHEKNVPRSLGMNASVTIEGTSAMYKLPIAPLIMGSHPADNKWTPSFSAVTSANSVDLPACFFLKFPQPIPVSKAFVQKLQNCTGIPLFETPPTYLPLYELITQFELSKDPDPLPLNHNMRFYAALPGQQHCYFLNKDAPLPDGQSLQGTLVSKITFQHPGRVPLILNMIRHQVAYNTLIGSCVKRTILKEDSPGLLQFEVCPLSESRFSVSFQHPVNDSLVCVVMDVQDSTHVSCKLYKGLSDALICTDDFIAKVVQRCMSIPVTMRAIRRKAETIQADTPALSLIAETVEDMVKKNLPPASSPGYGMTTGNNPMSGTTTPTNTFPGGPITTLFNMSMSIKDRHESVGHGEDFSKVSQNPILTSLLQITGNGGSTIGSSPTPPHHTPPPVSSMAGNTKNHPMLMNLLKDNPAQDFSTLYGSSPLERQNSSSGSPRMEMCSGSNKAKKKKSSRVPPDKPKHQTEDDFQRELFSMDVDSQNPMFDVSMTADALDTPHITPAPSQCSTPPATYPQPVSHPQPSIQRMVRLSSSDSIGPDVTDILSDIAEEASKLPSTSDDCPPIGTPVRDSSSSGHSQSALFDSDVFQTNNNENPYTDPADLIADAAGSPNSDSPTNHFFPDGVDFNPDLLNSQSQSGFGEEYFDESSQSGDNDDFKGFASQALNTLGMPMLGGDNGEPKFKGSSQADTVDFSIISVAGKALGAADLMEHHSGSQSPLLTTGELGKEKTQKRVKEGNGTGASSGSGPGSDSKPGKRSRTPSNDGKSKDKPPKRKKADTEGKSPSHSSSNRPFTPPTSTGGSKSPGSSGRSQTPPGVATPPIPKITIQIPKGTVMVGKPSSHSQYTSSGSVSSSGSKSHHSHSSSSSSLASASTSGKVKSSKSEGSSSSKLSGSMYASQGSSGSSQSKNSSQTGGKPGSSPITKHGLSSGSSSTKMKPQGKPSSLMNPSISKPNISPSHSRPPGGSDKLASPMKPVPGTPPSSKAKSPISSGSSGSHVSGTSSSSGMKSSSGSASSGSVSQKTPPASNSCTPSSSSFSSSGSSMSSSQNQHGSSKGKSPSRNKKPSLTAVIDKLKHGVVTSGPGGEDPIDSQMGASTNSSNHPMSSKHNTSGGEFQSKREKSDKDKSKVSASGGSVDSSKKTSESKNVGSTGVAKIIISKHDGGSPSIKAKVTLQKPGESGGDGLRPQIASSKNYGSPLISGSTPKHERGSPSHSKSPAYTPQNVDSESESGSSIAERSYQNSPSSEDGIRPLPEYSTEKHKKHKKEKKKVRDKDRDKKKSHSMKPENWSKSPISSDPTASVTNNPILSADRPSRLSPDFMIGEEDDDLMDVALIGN
# MED7 = target: T2, MED7 (Mus musculus (endogenous in CH12 cells), UniProt Q9CZB6 1-233)
# T2 sequence (looked up): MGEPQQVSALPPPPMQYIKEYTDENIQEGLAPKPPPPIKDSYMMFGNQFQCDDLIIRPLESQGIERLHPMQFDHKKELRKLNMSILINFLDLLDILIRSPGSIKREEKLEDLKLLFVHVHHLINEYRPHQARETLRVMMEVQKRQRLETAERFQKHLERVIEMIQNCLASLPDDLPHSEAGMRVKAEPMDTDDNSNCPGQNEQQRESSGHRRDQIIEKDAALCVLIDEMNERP
# MED22 = target: T3, MED22 (Mus musculus (endogenous in CH12 cells), UniProt Q62276 1-200)
# T3 sequence (looked up): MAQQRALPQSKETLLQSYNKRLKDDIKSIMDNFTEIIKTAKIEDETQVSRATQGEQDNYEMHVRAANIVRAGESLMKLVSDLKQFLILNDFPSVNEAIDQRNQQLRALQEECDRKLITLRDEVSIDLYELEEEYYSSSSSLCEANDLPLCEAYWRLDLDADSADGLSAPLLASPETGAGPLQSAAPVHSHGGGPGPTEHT
# MED28 = target: T4, MED28 (Mus musculus (endogenous in CH12 cells), UniProt Q920D3 1-178)
# T4 sequence (looked up): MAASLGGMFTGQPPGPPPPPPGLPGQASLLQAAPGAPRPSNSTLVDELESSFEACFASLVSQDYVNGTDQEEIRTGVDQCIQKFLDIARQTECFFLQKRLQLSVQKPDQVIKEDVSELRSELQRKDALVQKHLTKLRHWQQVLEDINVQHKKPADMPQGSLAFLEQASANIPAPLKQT
# MED30 = target: T5, MED30 (Mus musculus (endogenous in CH12 cells), UniProt Q9CQI9 1-178)
# T5 sequence (looked up): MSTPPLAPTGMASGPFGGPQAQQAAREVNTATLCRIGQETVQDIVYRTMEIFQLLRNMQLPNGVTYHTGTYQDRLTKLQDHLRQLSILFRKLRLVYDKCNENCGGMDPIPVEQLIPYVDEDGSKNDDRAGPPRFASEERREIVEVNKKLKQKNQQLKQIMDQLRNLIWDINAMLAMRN
# MED20 = target: T6, MED20 (Mus musculus (endogenous in CH12 cells), UniProt Q9R0X0 1-212)
# T6 sequence (looked up): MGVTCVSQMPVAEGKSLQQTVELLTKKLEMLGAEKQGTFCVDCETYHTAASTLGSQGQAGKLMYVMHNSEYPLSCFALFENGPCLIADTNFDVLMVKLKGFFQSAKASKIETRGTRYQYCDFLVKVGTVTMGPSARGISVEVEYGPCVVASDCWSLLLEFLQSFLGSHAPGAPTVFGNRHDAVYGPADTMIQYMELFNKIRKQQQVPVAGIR
# MED27 = target: T7, MED27 (Mus musculus (endogenous in CH12 cells), UniProt Q9DB40 1-311)
# T7 sequence (looked up): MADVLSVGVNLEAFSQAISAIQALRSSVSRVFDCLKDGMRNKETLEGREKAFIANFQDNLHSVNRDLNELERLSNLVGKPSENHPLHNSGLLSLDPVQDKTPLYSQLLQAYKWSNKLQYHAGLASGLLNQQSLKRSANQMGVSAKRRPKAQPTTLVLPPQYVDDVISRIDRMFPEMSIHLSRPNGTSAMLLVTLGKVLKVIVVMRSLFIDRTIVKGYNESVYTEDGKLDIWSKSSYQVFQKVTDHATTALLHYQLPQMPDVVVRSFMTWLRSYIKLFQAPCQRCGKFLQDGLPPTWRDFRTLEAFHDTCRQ
# MED17 = target: T8, MED17 (Mus musculus (endogenous in CH12 cells), UniProt Q8VCD5 1-649)
# T8 sequence (looked up): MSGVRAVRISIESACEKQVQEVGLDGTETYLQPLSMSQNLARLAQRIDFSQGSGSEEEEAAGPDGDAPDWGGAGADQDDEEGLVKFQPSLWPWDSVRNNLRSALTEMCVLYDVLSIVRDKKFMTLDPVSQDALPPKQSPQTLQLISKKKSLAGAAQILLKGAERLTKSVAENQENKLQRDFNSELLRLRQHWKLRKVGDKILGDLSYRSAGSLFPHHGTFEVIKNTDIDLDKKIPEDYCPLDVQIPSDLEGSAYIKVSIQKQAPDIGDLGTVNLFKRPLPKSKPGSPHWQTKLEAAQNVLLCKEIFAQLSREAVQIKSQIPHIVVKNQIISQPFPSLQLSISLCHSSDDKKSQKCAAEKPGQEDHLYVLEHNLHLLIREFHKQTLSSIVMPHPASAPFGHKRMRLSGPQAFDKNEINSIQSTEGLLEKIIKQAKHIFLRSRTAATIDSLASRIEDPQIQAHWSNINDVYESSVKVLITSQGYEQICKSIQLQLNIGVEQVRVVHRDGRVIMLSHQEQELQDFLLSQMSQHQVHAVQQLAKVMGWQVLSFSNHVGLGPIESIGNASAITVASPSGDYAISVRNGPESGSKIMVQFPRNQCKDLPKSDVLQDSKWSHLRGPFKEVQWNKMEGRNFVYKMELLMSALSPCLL
binder,measurement,setting,value
B1,binding result,MED4,binds
same,binding result,MED1,binds
B2,binding result,MED7,binds
B3,binding result,MED22,binds
same,binding result,MED28,binds
same,binding result,MED30,binds
B4,binding result,MED20,binds
same,binding result,MED27,binds
same,binding result,MED17,binds
